This note sets out measurements from PMC3443289.

The target in this assay is HIV-1_(JR-FL) Env(−)ΔCT glycoprotein (uncleaved, cytoplasmic tail-truncated envelope glycoprotein precursor) (HIV-1 (isolate JR-FL)). Put plainly: cryo-EM structure.

In turn, “HIV-1_(JR-FL) Env(−)ΔCT glycoprotein (uncleaved, cytoplasmic tail-truncated envelope glycoprotein precursor) (natural protein)” returned a stoichiometry N of 3.
